Assay [1] deals with T1, Factor VIIIa (recombinant FVIII, Kogenate FS, activated with alpha-thrombin) (UniProt P00451 20-2351).
T1 construct: also called FVIIIa; cofactor
T1 sequence (looked up): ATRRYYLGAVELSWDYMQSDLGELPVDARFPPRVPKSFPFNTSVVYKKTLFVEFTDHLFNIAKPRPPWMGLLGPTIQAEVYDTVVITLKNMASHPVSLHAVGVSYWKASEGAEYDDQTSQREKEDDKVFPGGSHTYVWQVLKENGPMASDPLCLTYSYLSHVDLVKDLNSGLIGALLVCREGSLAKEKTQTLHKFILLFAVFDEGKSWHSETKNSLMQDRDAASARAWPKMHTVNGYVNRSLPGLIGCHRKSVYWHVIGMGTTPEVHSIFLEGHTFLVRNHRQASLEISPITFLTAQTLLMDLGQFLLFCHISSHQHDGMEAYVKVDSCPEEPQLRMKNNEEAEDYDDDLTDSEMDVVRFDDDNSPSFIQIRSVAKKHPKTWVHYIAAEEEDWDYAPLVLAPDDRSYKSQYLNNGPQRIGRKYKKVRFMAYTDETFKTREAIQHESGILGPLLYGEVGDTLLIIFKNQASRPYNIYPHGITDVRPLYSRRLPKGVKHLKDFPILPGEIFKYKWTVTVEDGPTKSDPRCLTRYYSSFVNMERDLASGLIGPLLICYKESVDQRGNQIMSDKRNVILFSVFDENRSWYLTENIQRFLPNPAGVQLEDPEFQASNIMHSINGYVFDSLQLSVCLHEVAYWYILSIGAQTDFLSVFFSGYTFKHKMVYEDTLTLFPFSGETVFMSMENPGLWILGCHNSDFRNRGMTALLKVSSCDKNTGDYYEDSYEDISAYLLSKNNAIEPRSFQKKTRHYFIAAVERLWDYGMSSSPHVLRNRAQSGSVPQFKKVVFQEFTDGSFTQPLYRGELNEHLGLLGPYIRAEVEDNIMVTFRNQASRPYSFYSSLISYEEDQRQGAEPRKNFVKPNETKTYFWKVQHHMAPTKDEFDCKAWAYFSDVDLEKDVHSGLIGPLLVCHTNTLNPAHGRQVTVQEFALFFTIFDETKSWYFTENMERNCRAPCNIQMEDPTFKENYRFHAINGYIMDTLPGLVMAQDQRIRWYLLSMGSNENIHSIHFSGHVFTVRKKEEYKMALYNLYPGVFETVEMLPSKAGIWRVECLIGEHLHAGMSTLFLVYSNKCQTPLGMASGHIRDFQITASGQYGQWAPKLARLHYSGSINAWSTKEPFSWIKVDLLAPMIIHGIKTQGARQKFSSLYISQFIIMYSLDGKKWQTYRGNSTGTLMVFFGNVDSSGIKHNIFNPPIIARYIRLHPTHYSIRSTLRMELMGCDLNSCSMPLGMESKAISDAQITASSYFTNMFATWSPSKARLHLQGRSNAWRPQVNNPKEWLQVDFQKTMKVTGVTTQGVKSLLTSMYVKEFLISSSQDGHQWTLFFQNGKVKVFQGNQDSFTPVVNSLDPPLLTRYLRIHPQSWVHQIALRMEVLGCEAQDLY
As to the kind of experiment: same assay; ratio of KD-app of Catalyst Biosciences WT FIXa to KD-app of this FIXa.

The target of assay [2] is T1, Factor VIIIa (recombinant FVIII, …). Nature of the assay: apparent functional KD (KD-app): FXa generation by FIXa with FVIIIa titrated, PC/PS vesicles, saturating FX, fluorogenic Spectrafluor FXa.
Assay [3] addresses T2, Factor VIIIa (recombinant FVIII, Kogenate FS, activated with alpha-thrombin) (UniProt P00451 20-2351).
T2 construct: also called FVIIIa
T2 sequence (looked up): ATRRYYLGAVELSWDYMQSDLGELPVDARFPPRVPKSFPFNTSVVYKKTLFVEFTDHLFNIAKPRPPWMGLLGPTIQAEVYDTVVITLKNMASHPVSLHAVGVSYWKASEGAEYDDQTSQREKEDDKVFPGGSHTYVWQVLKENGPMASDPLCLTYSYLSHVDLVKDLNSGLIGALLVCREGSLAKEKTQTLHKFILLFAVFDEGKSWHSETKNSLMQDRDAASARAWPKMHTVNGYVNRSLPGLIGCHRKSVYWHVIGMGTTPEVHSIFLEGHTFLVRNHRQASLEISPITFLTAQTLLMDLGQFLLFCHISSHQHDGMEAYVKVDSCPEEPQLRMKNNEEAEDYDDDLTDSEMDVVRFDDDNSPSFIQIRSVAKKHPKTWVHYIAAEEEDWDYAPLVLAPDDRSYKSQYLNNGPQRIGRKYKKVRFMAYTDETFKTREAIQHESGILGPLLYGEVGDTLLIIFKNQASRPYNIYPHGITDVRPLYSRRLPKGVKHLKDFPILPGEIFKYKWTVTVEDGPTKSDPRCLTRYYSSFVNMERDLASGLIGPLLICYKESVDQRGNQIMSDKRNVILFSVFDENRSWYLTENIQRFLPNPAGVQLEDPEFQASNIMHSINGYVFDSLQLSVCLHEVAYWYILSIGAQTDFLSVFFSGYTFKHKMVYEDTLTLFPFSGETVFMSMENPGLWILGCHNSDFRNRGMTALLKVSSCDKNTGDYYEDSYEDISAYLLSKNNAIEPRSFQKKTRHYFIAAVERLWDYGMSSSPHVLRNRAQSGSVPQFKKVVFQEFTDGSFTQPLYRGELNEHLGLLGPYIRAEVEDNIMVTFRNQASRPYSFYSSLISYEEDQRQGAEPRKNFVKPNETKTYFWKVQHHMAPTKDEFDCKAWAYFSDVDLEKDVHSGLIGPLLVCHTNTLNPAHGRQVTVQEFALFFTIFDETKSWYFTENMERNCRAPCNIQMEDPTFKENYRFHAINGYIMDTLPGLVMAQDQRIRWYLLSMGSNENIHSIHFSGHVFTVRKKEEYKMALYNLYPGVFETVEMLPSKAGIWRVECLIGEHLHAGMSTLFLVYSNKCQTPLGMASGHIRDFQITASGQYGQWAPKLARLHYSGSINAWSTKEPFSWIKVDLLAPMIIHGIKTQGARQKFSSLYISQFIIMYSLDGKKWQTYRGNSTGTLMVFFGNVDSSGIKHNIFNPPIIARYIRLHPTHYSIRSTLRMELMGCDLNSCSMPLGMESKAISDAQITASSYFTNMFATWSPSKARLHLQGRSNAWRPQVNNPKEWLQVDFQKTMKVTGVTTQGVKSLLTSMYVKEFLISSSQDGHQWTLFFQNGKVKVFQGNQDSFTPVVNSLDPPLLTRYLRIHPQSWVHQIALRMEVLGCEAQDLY
Nature of the assay: ratio of KD-app of wild-type FIXa (Catalyst Biosciences WT, SEQ ID NO:3) to that of the variant, same Xase assay.

Assay [4] concerns the target T2, Factor VIIIa (recombinant FVIII, …). As to the kind of experiment: functional cofactor affinity KD-app: fluorogenic FX activation (Xase) assay, FVIIIa titrated, PC/PS vesicles, saturating FX.

Drawing on US20210238260A1 (published 2021), this text covers KD-WT/KD-mut and Kd for 5 molecules.

B1: FIXa-D104N/K106S/R318Y/R338E/E410N (enzyme)
chain 1: YNSGKLEEFVQGNLERECMEEKCSFEEAREVFENTERTTEFWKQYVDGDQCESNPCLNGGSCKDDINSYECWCPFGFEGKNCELDVTCNIKNGRCEQFCKNSANNSVVCSCTEGYRLAENQKSCEPAVPFPCGRVSVSQTSKLTR
chain 2: VVGGEDAKPGQFPWQVVLNGKVDAFCGGSIVNEKWIVTAAHCVETGVKITVVAGEHNIEETEHTEQKRNVIRIIPHHNYNAAINKYNHDIALLELDEPLVLNSYVTPICIADKEYTNIFLKFGSGYVSGWGRVFHKGYSALVLQYLRVPLVDRATCLESTKFTIYNNMFCAGFHEGGRDSCQGDSGGPHVTEVEGTSFLTGIISWGEECAMKGKYGIYTKVSRYVNWIKNKTKLT
Turning to B1, in assay [1], the KD-WT/KD-mut was 7.7. Besides, in assay [2], the Kd was found to be 12.4 nM.

B2: FIXa-Y155F/R318Y/T343R/E410N (enzyme)
chain 1: YNSGKLEEFVQGNLERECMEEKCSFEEAREVFENTERTTEFWKQYVDGDQCESNPCLNGGSCKDDINSYECWCPFGFEGKNCELDVTCNIKNGRCEQFCKNSADNKVVCSCTEGYRLAENQKSCEPAVPFPCGRVSVSQTSKLTR
chain 2: VVGGEDAKPGQFPWQVVLNGKVDAFCGGSIVNEKWIVTAAHCVETGVKITVVAGEHNIEETEHTEQKRNVIRIIPHHNYNAAINKYNHDIALLELDEPLVLNSYVTPICIADKEYTNIFLKFGSGYVSGWGRVFHKGYSALVLQYLRVPLVDRATCLRSTKFRIYNNMFCAGFHEGGRDSCQGDSGGPHVTEVEGTSFLTGIISWGEECAMKGKYGIYTKVSRYVNWIKNKTKLT
Consider B2, for which the KD-WT/KD-mut in assay [3] is 2.5. The Kd in assay [4] is 38 nM.

B3: FIXa-Y155F/K247N/N249S/R338E/E410N (enzyme)
chain 1: YNSGKLEEFVQGNLERECMEEKCSFEEAREVFENTERTTEFWKQYVDGDQCESNPCLNGGSCKDDINSYECWCPFGFEGKNCELDVTCNIKNGRCEQFCKNSADNKVVCSCTEGYRLAENQKSCEPAVPFPCGRVSVSQTSKLTR
chain 2: VVGGEDAKPGQFPWQVVLNGKVDAFCGGSIVNEKWIVTAAHCVETGVKITVVAGEHNIEETEHTEQNRSVIRIIPHHNYNAAINKYNHDIALLELDEPLVLNSYVTPICIADKEYTNIFLKFGSGYVSGWGRVFHKGRSALVLQYLRVPLVDRATCLESTKFTIYNNMFCAGFHEGGRDSCQGDSGGPHVTEVEGTSFLTGIISWGEECAMKGKYGIYTKVSRYVNWIKNKTKLT
With B3, in assay [3], the KD-WT/KD-mut worked out at 3.8. In addition, the Kd in assay [4] is 24.9 nM.

B4: FIXa-Y155F/K247N/N249S/R338E/T343R (enzyme)
chain 1: YNSGKLEEFVQGNLERECMEEKCSFEEAREVFENTERTTEFWKQYVDGDQCESNPCLNGGSCKDDINSYECWCPFGFEGKNCELDVTCNIKNGRCEQFCKNSADNKVVCSCTEGYRLAENQKSCEPAVPFPCGRVSVSQTSKLTR
chain 2: VVGGEDAKPGQFPWQVVLNGKVDAFCGGSIVNEKWIVTAAHCVETGVKITVVAGEHNIEETEHTEQNRSVIRIIPHHNYNAAINKYNHDIALLELDEPLVLNSYVTPICIADKEYTNIFLKFGSGYVSGWGRVFHKGRSALVLQYLRVPLVDRATCLESTKFRIYNNMFCAGFHEGGRDSCQGDSGGPHVTEVEGTSFLTGIISWGEECAMKGKYGIYTKVSRYVNWIKEKTKLT
As to B4, the KD-WT/KD-mut in assay [3] came to 6.2. For the same molecule, in assay [4], the Kd is 15.4 nM.

B5: FIXa-R318Y/R338E/E410N (enzyme)
chain 1: YNSGKLEEFVQGNLERECMEEKCSFEEAREVFENTERTTEFWKQYVDGDQCESNPCLNGGSCKDDINSYECWCPFGFEGKNCELDVTCNIKNGRCEQFCKNSADNKVVCSCTEGYRLAENQKSCEPAVPFPCGRVSVSQTSKLTR
chain 2: VVGGEDAKPGQFPWQVVLNGKVDAFCGGSIVNEKWIVTAAHCVETGVKITVVAGEHNIEETEHTEQKRNVIRIIPHHNYNAAINKYNHDIALLELDEPLVLNSYVTPICIADKEYTNIFLKFGSGYVSGWGRVFHKGYSALVLQYLRVPLVDRATCLESTKFTIYNNMFCAGFHEGGRDSCQGDSGGPHVTEVEGTSFLTGIISWGEECAMKGKYGIYTKVSRYVNWIKNKTKLT
notes: also called R150Y/R170E/E240N
With B5, the KD-WT/KD-mut in assay [1] worked out at 12.4. In addition, the Kd in assay [2] came out at 7.7 nM.
